Experimental findings from patent US12708677B2, “Contrast agents, methods for preparing contrast agents, and methods of imaging” (Georgia State University Research Foundation, Inc., priority 2008, dated 2026) are described below.

Where “and” joins values, the source holds several entries; their conditions need not be identical. Equal entries are not always repeated.

The data set is described as follows: Water coordination number by terbium life time luminescence. It counts as physicochemical. How it is done: Measurement of Water Coordination Number by Terbium Life Time Luminescence. The number of water ligands coordinated to Gd^3+-CA1.CD2 complex was determined by measuring Tb^3+ luminescence decay in H2O or D2O. Tb^3+ excited state lifetime was measured using a fluorescence spectrophotometer (Photon Technology International, Inc.) with a 10 mm path length quartz cell at 22° ° C. Following excitation at 265 nm with a XenoFlash (Photon Technology International, Inc.), Tb^3+ emission was monitored at 545 nm in a time series experiment in both H2O and D2O systems. Luminescence decay lifetime was obtained by fitting the acquired data with a mono-exponential decay function. H2O in CA1.CD2 solution was replaced with D2O by lypholization and re-dissolved in D2O at least three times. A standard curve correlating the Δkobs with water number under our experimental conditions was established by using well-characterized chelators, such as EDTA (q=3), DTPA (q=1), NTA (q=5), and Aquo Tb^3+ (q=9) solution with R^2=0.997.^26,27 Water number coordinated to Tb^3+-CA1.CD2 complex was then obtained by fitting the acquired Δkobs value to the standard curve.
The numbers of water ligands coordinated to Gd^3+-CA1.CD2 and variants complex were determined by measuring Tb^3+ luminescence decay in H2O or D2O (Yang et al., 2008). Tb^3+ excited state lifetime was measured using a fluorescence spectrophotometer (Photon Technology International, Inc.) with a 10 mm path length quartz cell at 22° C. Following excitation at 265 nm with a XenoFlash (Photon Technology International, Inc.), Tb^3+ emission was monitored at 545 nm in a time series experiment in both H2O and D2O systems. Luminescence decay lifetime was obtained by fitting the acquired data with a mono-exponential decay function. H2O in CA1.CD2 solution was replaced with D2O by lypholization and re-dissolved in D2O at least three times. A standard curve correlating the Δkobs with water number under our experimental conditions was established by using well-characterized chelators, such as EDTA (q=3). DTPA (q=1), NTA (q=5), and Aquo Tb^3+ (q=9) solation with R^2=0.997.^26, 27 Water number coordinated to Tb^+-CA1.CD2 complex was then obtained by fitting the acquired Δkobs value to the standard curve.

B1: CA1.CD2: designed Gd^3+-binding protein, domain 1 of rat CD2 with ligand residues Glu15, Glu56, Asp58, Asp62, Asp64 (protein)
chain: RDSGTVWGALGHGIELNIPNFQMTDDIDEVRWERGSTLVAEFKRKMKPFLKSGAFEIDANGDLDIKNLTRDDSGTYNVTVYSTNGTRILNKALDLRILE
For B1, the “hydration number (water number in the coordination shell)” value was 2.1 and 2. Moreover, under “in D2O”, the “Tb^3+ life time” value is 1,679 μs. Also, the “Tb^3+ life time” value (protein complex in H2O) stood at 859 μs.
